Assay results reported in paper PMC8764033, “Single-molecule analysis of specificity and multivalency in binding of short linear substrate motifs to the APC/C” (Nature Communications, 2022).
Values joined by “and” are separate entries in the source; they are usually repeats but may differ in a detail not shown here. Equal entries are not always repeated.

Experiments:
Cdh1^WD40 = biological target: T1, Cdh1^WD40 (Saccharomyces cerevisiae, UniProt P53197); experiment: SMOR assay (single-molecule off-rate, TIRF), yeast Cdh1^WD40; assay type: binding; settings: for mean dwell time: representative of two independent experiments, ± SE, ligand ≤1 nM, buffer C + BSA
T1 construct: the WD40 domains of yeast Cdh1 (aa 241–550; pNH144); made in house; host or cells: Sf9 insect cells (baculovirus)
T1 sequence (P53197 241-550): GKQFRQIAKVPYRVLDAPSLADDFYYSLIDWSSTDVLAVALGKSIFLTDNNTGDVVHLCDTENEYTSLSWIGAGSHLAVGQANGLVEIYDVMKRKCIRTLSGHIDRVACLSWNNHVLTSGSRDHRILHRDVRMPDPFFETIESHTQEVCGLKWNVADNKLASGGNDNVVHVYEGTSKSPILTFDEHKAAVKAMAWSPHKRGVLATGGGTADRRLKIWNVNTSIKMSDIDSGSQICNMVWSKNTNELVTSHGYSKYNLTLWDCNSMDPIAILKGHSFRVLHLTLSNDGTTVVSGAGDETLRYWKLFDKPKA
Description: Activators were cloned into the pFastBac HT A vector, with an N-terminal 2xStrep-Tag II. For some experiments, we constructed vectors for expression of the WD40 domains of yeast Cdh1 (aa 241–550; pNH144), human Cdh1 (aa 165–484; pNH164), or human Cdc20 (aa 162–484; pNH188). For SMOR, a C-terminal GFP tag was added. Bacmid plasmids are listed in Supplementary Table 3. Plasmids were transformed into DH10Bac cells, and purified Bacmid was used to transfect Sf9 cells to generate P1 baculovirus, which was used to generate P2 virus. SF9 cells were infected with the P2 virus for 48 h. Flash-frozen pellets were lysed by sonication or high-pressure homogenization in lysis buffer B (50 mM Tris-HCl pH 8, 150 mM KCl, 0.5 mM EDTA, 1 mM DTT, 10% Glycerol, EDTA-free protease inhibitor tablet, 1 µg ml^−1 pepstatin A). After the lysate was applied to the StrepTrap column, the column was washed with wash buffer B (lysis buffer B lacking protease inhibitors) and eluted in the same buffer containing 2.5 mM desthiobiotin.
For all SMOR experiments, 24 × 50 mm high precision glass coverslips (Bioscience Tools) and drilled microscope slides were passivated with a combination of PEG and PEG-biotin (coverslips) or PEG only (slides) following a previously published protocol for SiMPull[31]. Reaction chambers (~20 µl) were created using double-sided tape and epoxy. Protein was immobilized on the surface with 0.2 mg ml^−1 NeutrAvidin in buffer C (20 mM HEPES pH 7.5, 150 mM KCl, 10% glycerol, 0.05% Tween-20, 1 mM DTT). Excess NeutrAvidin was washed away and incubated with either biotin-conjugated mouse monoclonal anti-Strep-Tag II antibody (LSBio, Cat. No. LS-C203632-100) or biotin-conjugated rabbit polyclonal anti-GFP antibody (Rockland, Cat. No. 600-406-215) diluted in buffer C + BSA (0.1 mg ml^−1; Molecular Biology Grade Bovine Serum Albumin). Activator WD40 and activated APC/C (typically 50 µl containing about 65 ng APC/C, of which only a small fraction is immobilized on the glass) were immobilized using anti-Strep-Tag II, while APC/C alone was immobilized with anti-GFP. SMOR results were similar when performed in the buffer (wash buffer B) used in polarization anisotropy.
To capture dynamic protein–protein interactions, dye-labeled substrate diluted in buffer C + BSA was added to the chamber containing immobilized proteins. Interactions were imaged by TIRF microscopy as described below. For optimal signal-to-noise ratio, peptide concentration was no greater than 1 nM. Protein substrates included Hsl1 aa 667–872 and a C-terminal HaloTag followed by a TAP tag, and were produced by translation in rabbit reticulocyte lysates using TnT Quick Coupled Transcription/Translation System (Promega) (see Supplementary Table 5 for plasmids). Protein was purified with magnetic IgG beads and labeled on the bead with JF549 or JF646 dye so that unbound dye could be washed away. Purified dye-labeled protein was then cleaved from the beads using TEV protease. Before adding substrate to the reaction chamber, oxygen scavenging reagents were added (10 nM protocatechuate-3,4-dioxygenase, 2.5 mM protocatechuic acid, and 1 mM Trolox)[41]. A detailed description of the SMOR analysis pipeline is found in Supplementary Note 1.
Microscopy was performed with a Nikon Eclipse TE2000-E with Perfect Focus with a 100 × 1.49na oil, Apo TIRF DIC N2, 0.13-0.2, WD0.12 objective. Movies were recorded using the Andor iXon DU-897E-CSO. […]

APC/C = settings: APC/C^Cdc20 vs APC/C^Cdh1; cited from earlier work
From the text: We find that the yeast securin ...

B1: Hsl1^Halo KEN & D: Hsl1 fragment (amino acids 667–872) with C-terminal HaloTag, JF549-labeled (protein)
chain: QNSASKRSLYSLQSISKRSLNLNDLLVFDDPLPSKKPASENVNKSEPHSLESDSDFEILCDQILFGNALDRILEEEEDNEKERDTQRQRQNDTKSSADTFTISGVSTNKENEGPEYPTKIEKNQFNMSYKPSENMSGLSSFPIFEKENTLSSSYLEEQKPKRAALSDITNSFNKMNKQEGMRIEKKIQREQLQKKNDRPSPLKPIQ
modifications: JF549 or JF646 dye covalently bound to the HaloTag; left off: HaloTag, C-terminal, kept | TAP, C-terminal, cleaved
notes: Hsl1 fragment (amino acids 667–872) with C-terminal HaloTag, JF549-labeled
Dwell Time (Cdh1^WD40; Supplementary Table 1, replicate 1 (movie listed first)): 73.520 ± 3.075 s | Dwell Time (Cdh1^WD40; Supplementary Table 1, replicate 2 (movie listed second)): 56.447 ± 2.072 s | mean dwell time (Cdh1^WD40): 56.4 ± 2 s and 56.4 s | mean dwell time (Cdh1^WD40; listed as Hsl1 fragment): 56.4 ± 2 s | fold increase in dwell time vs degron peptide alone (Cdh1^WD40; vs D (and KEN) box peptide): 100 fold | processivity of ubiquitylation (in words) (APC/C): more processively modified by APC/C^Cdh1
